The assay deals with T1, N2 peptide (Ac-LMKNMDPLNDNV), N2 self-peptide of Mouse NMHC-IIB (592-603) (mouse (the filing says the region is …, not fully specified; printed as Ac-LMKNMDPLNDNV).
T1 peptide: Ac-LMKNMDPLNDNV
The assay can be described thus: not described (in vitro and in vivo binding of hybridoma antibody to N2 peptide).

Where no end group is shown, it is not given here.

B1: IgG^21G6 (21G6 IgG), antibody produced by murine B-cell hybridoma 21G6 (ATCC PTA-9393) (antibody, V domains shown)
VH: QVQLQESGAELVKPGASVKLSCKASGYTFTSYYMYWVKQRPGQGLEWIGGINPSNGGTNFNEKFKSKATLTVDKSSSTAYMQLSSLTSEDSAVYYCTRWGYDREWFAYWGQGTLVTVSA
VL: DIVMTQAAPSVPVTPGESVSISCRSSKSLLHSNGNTYLYWFLQRPGQSPQVLIYRMSNLASGVPDRFSGSGSGTAFTLRISRVEAEDVGVYYCMQHLEYPFTFGSGTKLEIKR
notes: also called anti-N2 mAb
As to B1, the binding result was “binds”.

B2: IgG^12A6 (12A6 IgG), antibody produced by murine B-cell hybridoma 12A6 (ATCC PTA-9392) (antibody, V domains shown)
VH: QVTLKESGPGILQPSQTLSLTCSFSGFSLSTFGIGVGWIRQPSGKGLEWLAHIWWNDNNYYNTSLKSRLTISKDTSNNQVFLKIASVDTADTATYYCARVGGINFSMDYWGQGTSVTVSS
VL: DIVMTQSASSLAVSAGEKVTMNCKSSQSVLYSSNQKNYLAWYQQKPGQSPKLLIYWASTRESGVPDRFTGSGSGTDFTLTISSVQAEDLAVYYCHQYLSSWTFGGGTKLEIKR
notes: also called 12A6 hybridoma antibody; anti-N2 antibody (12A6)
For B2, the binding result is reported as “binds”.
